Molecular target: T1, Strep-tagged STOML3-AmCyan1 (stomatin-like protein-3, wild type) (mouse, UniProt Q6PE84 1-287)
T1 construct: Stomatin-like protein-3 (STOML3), mouse; Made from the STOML3-EGFP plasmid 'described previously' by cloning into pAmCyan1-N1 with a Strep tag; also called STOML3-Strep; STOML3-CFP; source: CHO cells, transiently transfected; in lysate (co-IP) and in live cells (FRET)
T1 sequence (looked up): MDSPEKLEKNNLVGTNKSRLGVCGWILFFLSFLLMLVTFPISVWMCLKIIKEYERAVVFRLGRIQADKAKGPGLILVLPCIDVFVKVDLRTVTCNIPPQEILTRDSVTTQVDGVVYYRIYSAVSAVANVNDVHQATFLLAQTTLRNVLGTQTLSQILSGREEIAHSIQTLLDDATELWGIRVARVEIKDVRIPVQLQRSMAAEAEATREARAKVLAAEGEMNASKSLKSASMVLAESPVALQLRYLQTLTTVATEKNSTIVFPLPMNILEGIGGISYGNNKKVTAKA
Test: FRET or BRET; three-cube FRET imaging of CHO cells co-expressing the AmCyan1 (CFP) and EYFP fusions; apparent FRET efficiency, calibrated with two fluorophore-tandem constructs
Conditions: partners not purified

B1: EYFP-tagged ASIC4 (natural protein, mouse, UniProt Q7TNS7 1-539, looked up)
chain: MPIEIVCKIKFAEEDAKPKEKEAGDEQSLLGAAQGPAAPRDLATFASTSTLHGLGRACGPGPHGLRRTLWALALLTSLAAFLYQAASLARGYLTRPHLVAMDPAAPAPVAGFPAVTLCNINRFRHSALSDADIFHLANLTGLPPKDRDGHRAAGLRYPEPDMVDILNRTGHQLADMLKSCNFSGHHCSASNFSVVYTRYGKCYTFNADPQSSLPSRAGGMGSGLEIMLDIQQEEYLPIWRETNETSFEAGIRVQIHSQEEPPYIHQLGFGVSPGFQTFVSCQEQRLTYLPQPWGNCRAESELREPELQGYSAYSVSACRLRCEKEAVLQRCHCRMVHMPGNETICPPNIYIECADHTLDSLGGGSEGPCFCPTPCNLTRYGKEISMVKIPNRGSARYLARKYNRNETYIRENFLVLDVFFEALTSEAMEQQAAYGLSALLGDLGGQMGLFIGASILTLLEILDYIYEVSWDRLKRVWRRPKTPLRTSTGGISTLGLQELKEQSPCPSRGRAEGGGASSLLPNHHHPHGPPGSLFEDFAC
notes: source: CHO cells, transiently transfected, in live cells
apparent FRET efficiency (mean, cell-averaged): 15.4 ± 0.65%

B2: EYFP-tagged ASIC2b (natural protein, rat, UniProt Q62962-2 1-563, looked up)
chain: MSRSGGARLPATALSGPGRFRMAREQPAPVAVAAARQPGGDRSGDPALQGPGVARRGRPSLSRTKLHGLRHMCAGRTAAGGSFQRRALWVLAFCTSLGLLLSWSSNRLLYWLSFPSHTRVHREWSRQLPFPAVTVCNNNPLRFPRLSKGDLYYAGHWLGLLLPNRTARPLVSELLRGDEPRRQWFRKLADFRLFLPPRHFEGISAAFMDRLGHQLEDMLLSCKYRGELCGPHNFSSVFTKYGKCYMFNSGEDGKPLLTTVKGGTGNGLEIMLDIQQDEYLPIWGETEETTFEAGVKVQIHSQSEPPFIQELGFGVAPGFQTFVATQEQRLTYLPPPWGECRSSEMGLDFFPVYSITACRIDCETRYIVENCNCRMVHMPGDAPFCTPEQHKECAEPALGLLAEKDSNYCLCRTPCNLTRYNKELSMVKIPSKTSAKYLEKKFNKSEKYISENILVLDIFFEALNYETIEQKKAYEVAALLGDIGGQMGLFIGASLLTILELFDYIYELIKEKLLDLLGKEEEEGSHDENMSTCDTMPNHSETISHTVNVPLQTALGTLEEIAC
notes: as for B1
apparent FRET efficiency (mean, cell-averaged): 13.1 ± 0.49%

B3: EYFP-tagged ASIC1b (natural protein, mouse, UniProt Q6NXK8-2 1-559, looked up)
chain: MPIQIFCSVSFSSGEEAPGSMGDIWGPHHHHRQQQDSSESEEEEEKEKESGMELDEGDSPRDLVAFANSCTLHGASHVFVEGGPGPRQALWAVAFVIALGAFLCQVGDRVAYYLSYPHVTLLDEVATTELVFPAVTFCNTNAVRLSQLSYPDLLYLAPMLGLDESDDPGVPLAPPGPEAFSGEPFNLHRFYNRSCHRLEDMLLYCSYCGGPCGPHNFSVVFTRYGKCYTFNSGQDGRPRLKTMKGGTGNGLEIMLDIQQDEYLPVWGETDETSFEAGIKVQIHSQDEPPFIDQLGFGVAPGFQTFVSCQEQRLIYLPSPWGTCNAVTMDSDFFDSYSITACRIDCETRYLVENCNCRMVHMPGDAPYCTPEQYKECADPALDFLVEKDQEYCVCEMPCNLTRYGKELSMVKIPSKASAKYLAKKFNKSEQYIGENILVLDIFFEVLNYETIEQKKAYEIAGLLGDIGGQMGLFIGASILTVLELFDYAYEVIKHRLCRRGKCQKEAKRNSADKGVALSLDDVKRHNPCESLRGHPAGMTYAANILPHHPARGTFEDFTC
notes: as for B1
apparent FRET efficiency (mean, cell-averaged): 13.9 ± 0.73%

B4: EYFP-tagged ASIC1a (natural protein, mouse, UniProt Q6NXK8-1 1-526, looked up)
chain: MELKTEEEEVGGVQPVSIQAFASSSTLHGLAHIFSYERLSLKRALWALCFLGSLAVLLCVCTERVQYYFCYHHVTKLDEVAASQLTFPAVTLCNLNEFRFSQVSKNDLYHAGELLALLNNRYEIPDTQMADEKQLEILQDKANFRSFKPKPFNMREFYDRAGHDIRDMLLSCHFRGEACSAEDFKVVFTRYGKCYTFNSGQDGRPRLKTMKGGTGNGLEIMLDIQQDEYLPVWGETDETSFEAGIKVQIHSQDEPPFIDQLGFGVAPGFQTFVSCQEQRLIYLPSPWGTCNAVTMDSDFFDSYSITACRIDCETRYLVENCNCRMVHMPGDAPYCTPEQYKECADPALDFLVEKDQEYCVCEMPCNLTRYGKELSMVKIPSKASAKYLAKKFNKSEQYIGENILVLDIFFEVLNYETIEQKKAYEIAGLLGDIGGQMGLFIGASILTVLELFDYAYEVIKHRLCRRGKCQKEAKRNSADKGVALSLDDVKRHNPCESLRGHPAGMTYAANILPHHPARGTFEDFTC
notes: as for B1
apparent FRET efficiency (mean, cell-averaged): 14.4 ± 0.51%

B5: EYFP-tagged ASIC3 (natural protein, rat, UniProt O35240 1-533, looked up)
chain: MKPRSGLEEAQRRQASDIRVFASSCTMHGLGHIFGPGGLTLRRGLWATAVLLSLAAFLYQVAERVRYYGEFHHKTTLDERESHQLTFPAVTLCNINPLRRSRLTPNDLHWAGTALLGLDPAEHAAYLRALGQPPAPPGFMPSPTFDMAQLYARAGHSLEDMLLDCRYRGQPCGPENFTVIFTRMGQCYTFNSGAHGAELLTTPKGGAGNGLEIMLDVQQEEYLPIWKDMEETPFEVGIRVQIHSQDEPPAIDQLGFGAAPGHQTFVSCQQQQLSFLPPPWGDCNTASLDPDDFDPEPSDPLGSPRPRPSPPYSLIGCRLACESRYVARKCGCRMMHMPGNSPVCSPQQYKDCASPALDAMLRKDTCVCPNPCATTRYAKELSMVRIPSRASARYLARKYNRSESYITENVLVLDIFFEALNYEAVEQKAAYEVSELLGDIGGQMGLFIGASLLTILEILDYLCEVFQDRVLGYFWNRRSAQKRSGNTLLQEELNGHRTHVPHLSLGPRPPTTPCAVTKTLSASHRTCYLVTRL
notes: as for B1
apparent FRET efficiency (mean, cell-averaged): 15.5 ± 0.67%

B6: EYFP-tagged ASIC2a (natural protein, rat, UniProt Q62962-1 1-512, looked up)
chain: MDLKESPSEGSLQPSSIQIFANTSTLHGIRHIFVYGPLTIRRVLWAVAFVGSLGLLLVESSERVSYYFSYQHVTKVDEVVAQSLVFPAVTLCNLNGFRFSRLTTNDLYHAGELLALLDVNLQIPDPHLADPTVLEALRQKANFKHYKPKQFSMLEFLHRVGHDLKDMMLYCKFKGQECGHQDFTTVFTKYGKCYMFNSGEDGKPLLTTVKGGTGNGLEIMLDIQQDEYLPIWGETEETTFEAGVKVQIHSQSEPPFIQELGFGVAPGFQTFVATQEQRLTYLPPPWGECRSSEMGLDFFPVYSITACRIDCETRYIVENCNCRMVHMPGDAPFCTPEQHKECAEPALGLLAEKDSNYCLCRTPCNLTRYNKELSMVKIPSKTSAKYLEKKFNKSEKYISENILVLDIFFEALNYETIEQKKAYEVAALLGDIGGQMGLFIGASLLTILELFDYIYELIKEKLLDLLGKEEEEGSHDENMSTCDTMPNHSETISHTVNVPLQTALGTLEEIAC
notes: also called ASIC2a-YFP; source: CHO cells, transiently transfected, in live cells
apparent FRET efficiency (mean, cell-averaged): 13.4 ± 0.52%

From paper PMC3390797, “Regulation of ASIC channels by a stomatin/STOML3 complex located in a mobile vesicle pool in sensory neurons” (Open Biology, 2012)
